Molecular target: T1, [^35S]-tastin (UniProt Q12815 1-778, limits assumed, [^35S]-methionine labeled)
T1 construct: also called in vitro translated [^35S]-labeled tastin
T1 sequence (looked up): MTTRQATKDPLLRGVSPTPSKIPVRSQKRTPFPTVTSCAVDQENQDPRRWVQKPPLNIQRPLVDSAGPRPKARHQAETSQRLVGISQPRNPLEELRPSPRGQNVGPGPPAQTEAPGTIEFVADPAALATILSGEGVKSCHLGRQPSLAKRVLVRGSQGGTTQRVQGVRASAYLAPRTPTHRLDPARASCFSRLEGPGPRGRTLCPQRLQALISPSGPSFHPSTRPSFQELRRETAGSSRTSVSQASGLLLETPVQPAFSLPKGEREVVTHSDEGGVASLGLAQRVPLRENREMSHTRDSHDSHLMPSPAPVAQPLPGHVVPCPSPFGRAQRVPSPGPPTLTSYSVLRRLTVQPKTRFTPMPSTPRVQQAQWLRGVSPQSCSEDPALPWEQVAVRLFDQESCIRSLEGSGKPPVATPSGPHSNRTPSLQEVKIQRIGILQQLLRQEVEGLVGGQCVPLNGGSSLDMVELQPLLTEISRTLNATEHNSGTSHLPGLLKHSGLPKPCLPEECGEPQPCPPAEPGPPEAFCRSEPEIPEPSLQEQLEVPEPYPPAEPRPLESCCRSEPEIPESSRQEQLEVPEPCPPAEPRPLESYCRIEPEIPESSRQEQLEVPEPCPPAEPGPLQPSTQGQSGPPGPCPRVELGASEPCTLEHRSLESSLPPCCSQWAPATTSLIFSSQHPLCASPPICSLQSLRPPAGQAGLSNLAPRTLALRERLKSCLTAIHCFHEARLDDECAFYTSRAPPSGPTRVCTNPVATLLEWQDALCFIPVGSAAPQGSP
Test: GST pull-down of in vitro translated [^35S]-protein on glutathione beads, autoradiography (FIG. 7A)
Method: In vitro translated [³⁵S]-labeled trophinin, bystin or tastin was incubated with GST or GST-ErbB4 immobilized on glutathione beads. Bead-bound materials were visualized by autoradiography after gel electrophoresis. […] Bead-bound materials were visualized by autoradiography. Note that trophinin is captured by GSTErbB4 when bystin is present. […] HT-H cells treated with or without GWRQ peptide were subjected to immunoprecipitation with antiErbB4 antibody, followed by western blot analysis. Note that trophinin and bystin were co-immunoprecipitated with ErbB4 from cells not treated with GWRQ, whereas less trophinin was present in precipitates from GWRQ-treated cells.
A GST-fusion protein pull-down assay was carried out as described (Swaffield, J C, et al. 1996). Trophinin, bystin, and tastin proteins were produced as [³⁵S]-methionine labeled proteins using an vitro transcription and translation kit (TnT, Promega), according to the manufacturer's protocol. [³⁵S]-trophinin, [³⁵S]-bystin, and [³⁵S]-tastin were mixed individually with GSTErbB4 immobilized on glutathione beads in binding buffer (Swaffield, J C, et al. 1996) at 4° C. for 1 hour. After washing unbound materials with binding buffer, bead-bound material was eluted by boiling in SDS sample buffer. [³⁵S]-labeled proteins eluted were analyzed by SDS-PAGE followed by fluorography.

binding result: no binding
B1: GST-ErbB4 fusion protein (cytoplasmic domain of human ErbB4) (other, UniProt Q15303 676-1308, looked up)
chain: RRKSIKKKRALRRFLETELVEPLTPSGTAPNQAQLRILKETELKRVKVLGSGAFGTVYKGIWVPEGETVKIPVAIKILNETTGPKANVEFMDEALIMASMDHPHLVRLLGVCLSPTIQLVTQLMPHGCLLEYVHEHKDNIGSQLLLNWCVQIAKGMMYLEERRLVHRDLAARNVLVKSPNHVKITDFGLARLLEGDEKEYNADGGKMPIKWMALECIHYRKFTHQSDVWSYGVTIWELMTFGGKPYDGIPTREIPDLLEKGERLPQPPICTIDVYMVMVKCWMIDADSRPKFKELAAEFSRMARDPQRYLVIQGDDRMKLPSPNDSKFFQNLLDEEDLEDMMDAEEYLVPQAFNIPPPIYTSRARIDSNRSEIGHSPPPAYTPMSGNQFVYRDGGFAAEQGVSVPYRAPTSTIPEAPVAQGATAEIFDDSCCNGTLRKPVAPHVQEDSSTQRYSADPTVFAPERSPRGELDEEGYMTPMRDKPKQEYLNPVEENPFVSRRKNGDLQALDNPEYHNASNGPPKAEDEYVNEPLYLNTFANTLGKAEYLKNNILSMPEKAKKAFDNPDYWNHSLPPRSTLQHPDYLQEYSTKYFYKQNGRIRPIVAENPEYLSEFSLKPGTVLPPPPYRHRNTVV
notes: domain: cytoplasmic domain; Expressed in bacteria, immobilized on glutathione beads; Linker between GST and ErbB4 not described; not shown: glutathione S-transferase encoded by the vector pGEX-KG

Reference: patent publication US20080200369A1 (SANFORD BURNHAM MEDICAL RESEARCH INSTITUTE, published 2008)
